The values below come from patent US5084274A, “Inhibition of arterial thrombotic occlusion or thromboembolism” (Scripps Clinic and Research Foundation, priority 1987, dated 1992).

In experiment [1] the test system is acute myocardial infarction / occluded coronary arteries. Conditions: cited from earlier work.
Experiment [2] deals with platelet deposition in the Dacron graft. The experiment in a line: Platelet deposition (thrombus formation) in Dacron graft, arterial thrombosis model, 111In-labeled platelets. Format: in vivo, baboon. The following applies: 1 mg of t-PA (0.1 mg/kg/hour) infusion; previous studies, same model.
Experimental: Permanent arteriovenous shunts were prepared between the femoral artery and vein using 3 mm i.d. Silastic tubing Subsequent interposition of 5 cm long, 4 mm i.d. Dacron vascular grafts served as thrombogenic surface, inducing continuous platelet-fibrinthrombus formation until progressive occlusion of the graft at 70±20 min.
All baboons underwent at least one control experiment prior to APC administration. The APC was given by injecting one-fourth to one-third of the total PC dose as a bolus and the remaining three-fourths to two-thirds of the dose as continuous infusion for one hour. The interposition of the graft and bolus injection were made at time=0 and APC was administered at the proximal site of the Silastic shunt. The experiments were divided into three groups; the "low dose" APC group received 2.0-3.4 mg (total), the "high dose" APC group received 11 mg (total), and the combination group received 2.1 mg APC plus 1.3 mg t-PA (total).
Platelet Deposition in the Dacron Graft
The deposition of ^III In-labeled Platelets was detected by scintillation camera images of the graft. […] Inhibition of platelet deposition in treated animals was expressed as % of total number of platelets deposited in the control experiments at 30 and 60 minutes timepoints.

B1: t-PA: t-PA from a melanoma cell line, provided by Dr. Desire Collen (Leuven, Belgium) (protein, UniProt P00750 36-562, looked up)
Tissue-type plasminogen …: SYQVICRDEKTQMIYQQHQSWLRPVLRSNRVEYCWCNSGRAQCHSVPVKSCSEPRCFNGGTCQQALYFSDFVCQCPEGFAGKCCEIDTRATCYEDQGISYRGTWSTAESGAECTNWNSSALAQKPYSGRRPDAIRLGLGNHNYCRNPDRDSKPWCYVFKAGKYSSEFCSTPACSEGNSDCYFGNGSAYRGTHSLTESGASCLPWNSMILIGKVYTAQNPSAQALGLGKHNYCRNPDGDAKPWCHVLKNRRLTWEYCDVPSCSTCGLRQYSQPQFRIKGGLFADIASHPWQAAIFAKHRRSPGERFLCGGILISSCWILSAAHCFQERFPPHHLTVILGRTYRVVPGEEEQKFEVEKYIVHKEFDDDTYDNDIALLQLKSDSSRCAQESSVVRTVCLPPADLQLPDWTECELSGYGKHEALSPFYSERLKEAHVRLYPSSRCTSQHLLNRTVTDNMLCAGDTRSGGPQANLHDACQGDSGGPLVCLNDGRMTLVGIISWGLGCGQKDVPGVYTKVTNYLDWIRDNMRP
In the case of B1, the “Patients with reocclusion after discontinuing t-PA infusion” value in experiment [1] (after successful thrombolytic reperfusion, despite full-dose heparin therapy) was “between one-four and one-third of patients”. Moreover, in experiment [1] (infusion into humans), the “Thrombolysis in acute myocardial infarction (in words)” value is on record as “effective thrombolysis”. Further, in experiment [2], the “Antiplatelet effect (in words, FIG. 8)” value is reported as “intermediate antiplatelet effect”.
